Data taken from patent publication US20250025535A1, “A COMPOSITION COMPRISING NANOSIZED ACTIVE PHARMACEUTICAL INGREDIENT” (NANOFORM FINLAND OYJ, priority 2021, published 2025).

Test: Sedimentation of insulin suspension in fish oil
Assay type: physicochemical
Conditions: 10 mg in 1 ml fish oil, room temperature, t=0, 30 min, 60 min, 24 h; compared with bulk insulin
Description: A: t=0 min; B: t=30 min; C: t=60 min; D: t=24 h.
Nanosized insulin or bulk insulin (10 mg, Sigma) was added to 1 ml of fish oil, mixed by vortexing and allowed to stand at room temperature.

insulin [nanosized insulin]
sedimentation in fish oil as a function of time: significantly slower
